What was measured:
EGFR on MDA-MB-468 cells = target: T1, EGFR on MDA-MB-468 cells (UniProt P00533 25-1210, limits assumed); experiment: FACS on MDA-MB-468 cells (EGFR+, HER2-)
T1 construct: whole, on cells; also called MDA-MB-468 tumor cell line (EGFR+, HER2-)

murine HER2 on CHO cells = target: T2, murine HER2 on CHO cells (mouse, UniProt P70424 23-1256); experiment: FACS on CHO cells expressing murine HER2
T2 construct: whole, on cells; also called mHER2/ErbB2; murine Her2-CHO

[1] = target: T3, human HER2/ErbB2 on cells (human, UniProt P04626 23-1255); experiment: flow cytometry on CHO cells expressing human HER2
T3 construct: whole, on cells; also called hHER2/ErbB2; wild type HER2/ErbB
Method: CHO cells (Chinese Hamster Ovary cells) stably transfected with hHER2 expression vector and selected in G418 containing medium. G418 resistant clones were pooled and split 24 hours prior to the setup of the assay to obtain 70% confluent monolayer. Routinely, CHO cell line was maintained within 20 passages. Cells were lifted with cell dissociation buffer (Gibco catalog #13151-014), counted, washed and adjusted to 1×10⁶ cells/ml and one ml of cells were then added to each tube (12×75 mm tube Falcon catalog #352054). Cells were pelleted and supernatant removed by centrifugation at 1200 rpm for 5 min and 100 μl of diluted antibodies were then added to the cell pellet. Purified Fabs were tested at a starting concentration of either 210 or 60 μg/ml with 1:3 dilutions in FACS buffer, down to 0.001 μg/ml. FACS buffer used throughout the assay was PBS (without Ca^{+±}/Mg^{+±}) containing 1% BSA (Sigma catalog #A-7906) and 0.1% Sodium Azide (Sigma catalog #S2002). Samples were allowed to incubate on ice for 1 hour and 15 minutes then were washed with 2 ml FACS buffer and centrifuged at 1200 rpm for 5 minutes at 4° C. The supernatant was aspirated and 100 μl of the secondary detection antibody was added to each corresponding tube in FACS buffer. Samples were then incubated for 30 minutes on ice, in the dark. Cells were washed as described above, then, re-suspended in 250 μl FACS buffer per tube/sample.
A full titration was performed on MCF7 and SKBR3 tumor cell lines, and human Her2-CHO and murine Her2-CHO cell lines in order to calculate an approximate EC50 (data not shown, see summary in Table 1).

Her2-Fc D1 (MR066) = target: T4, Her2-Fc D1 (MR066); experiment: ELISA, HER2-Fc construct captured by anti-huFc, Fab from 1 ug/ml in 5-fold steps, HRP anti-kappa/lambda
T4 construct: also called ErbB2-Fc Domain 1
T4 chain: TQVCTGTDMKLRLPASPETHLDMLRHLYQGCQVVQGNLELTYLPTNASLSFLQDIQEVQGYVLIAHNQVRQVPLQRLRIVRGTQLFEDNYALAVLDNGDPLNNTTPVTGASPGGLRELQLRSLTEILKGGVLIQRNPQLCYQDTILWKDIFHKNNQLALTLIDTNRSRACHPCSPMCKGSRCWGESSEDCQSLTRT
Method: (§1) Nunc Maxisorp ELISA plates were coated with 5 ug/ml rabbit pAbs anti-human Fc gamma in PBS overnight at 4 degrees. Plates were washed one time with PBST (PBS, 0.05% tween 20) and blocked with 1% BSA in PBS for one hour at room temperature. Plates were washed one time with PBST and incubated with 1 ug/ml HER2-Fc fusion protein for one hour. Plates were washed three times with PBST and dilutions of Fab (four 5-fold serial dilutions, starting at 1 ug/ml) in block were added and incubated for ninety minutes. Plates were washed three times with PBST and incubated with 1:2,000 HRP-labelled goat anti-human kappa (Southern Biotech cat#2060-05) and HRP-labelled goat anti-human lambda (Southern Biotech cat#2070-05) in block for one hour at room temperature. Plates were washed three times with PBST, developed with TMB solution for 5 minutes, and stopped with equal volume 1 N H₂SO₄. Absorbance values were read at 450 nm.

Her2-Fc D1-D2 (MR067) = target: T5, Her2-Fc D1-D2 (MR067); experiment: as above
T5 construct: also called ErbB2-Fc Domains 1-2
T5 chain: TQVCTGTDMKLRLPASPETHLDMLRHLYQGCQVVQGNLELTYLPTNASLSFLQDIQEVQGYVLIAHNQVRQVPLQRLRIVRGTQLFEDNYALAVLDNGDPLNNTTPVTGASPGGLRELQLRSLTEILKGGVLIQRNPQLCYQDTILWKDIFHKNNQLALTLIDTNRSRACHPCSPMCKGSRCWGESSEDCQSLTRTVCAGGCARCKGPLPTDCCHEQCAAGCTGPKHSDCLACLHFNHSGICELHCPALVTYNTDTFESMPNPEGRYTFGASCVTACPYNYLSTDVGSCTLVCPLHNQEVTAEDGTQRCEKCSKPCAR
Method: as §1

Her2-Fc D1-D2-D3 (MR068) = target: T6, Her2-Fc D1-D2-D3 (MR068); experiment: as above
T6 construct: also called ErbB2-Fc Domains 1-3
Method: as §1

[2] = target: T7, Her2-Fc D1-D2-D3-D4 (MR069); experiment: as above
T7 construct: made in house, kept apart from the R&D Systems HER2-Fc; also called ErbB2-Fc full length ECD
Method: as §1

B1: BIIB67F11 Fab (Fab, V domains shown)
VH: EVQLLESGGGLVQPGGSLRLSCAASGFTFSNYYMMWVRQAPGKGLEWVSVIGSSGGMTNYADSVKGRFTISRDNSKNTLYLQMNSLRAEDTAVYYCARGYPTGYYDSSGWVYSYYGIDVWGQGTTVTVSS
VL: DIQMTQSPSSLSASIGDRVTITCQASQDTDNRLHWYQQKSGRAPKLLIYDAVNLKRGVPSRFRGSGSGTNFILTITNLQPEDMATYFCQHSDGLSLAFGGGTKLEIK
notes: Soluble human Fab from a naive phagemid Fab library
binding result (EGFR on MDA-MB-468 cells): no binding | binding result (murine HER2 on CHO cells): no binding | EC50 [1]: 7 nM | binding result (Her2-Fc D1 (MR066)): binds | binding result (Her2-Fc D1-D2 (MR067)): binds | binding result (Her2-Fc D1-D2-D3 (MR068)): binds | binding result [2]: binds

B2: BIIB69A09 Fab (Fab, V domains shown)
VH: EVQLLESGGGLVQPGGSLRLSCAASGFTFSRYNMWWVRQAPGKGLEWVSVIRSSGGYTGYADSVKGRFTISRDNSKNTLYLQMNSLRAEDTAVYYCARWNSGYSYWDYYYGMDVWGQGTTVTVSS
VL: DIQMTQSPSSLSASVGDRVTITCRASQSISSYLNWYQQKPGKAPKLLIYAASSLQSGVPSRFSGSGSGTDFTLTISSLQPEDFATYYCQQFNTYPITFGPGTKVDIK
notes: as for B1
binding result (EGFR on MDA-MB-468 cells): no binding | binding result (murine HER2 on CHO cells): no binding | EC50 [1]: 2 nM | binding result (Her2-Fc D1 (MR066)): binds | binding result (Her2-Fc D1-D2 (MR067)): binds | binding result (Her2-Fc D1-D2-D3 (MR068)): binds | binding result [2]: binds

B3: BIIB65B03 Fab (Fab, V domains shown)
VH: EVQLLESGGGLVQPGGSLRLSCAASGFTFSWYRMNWVRQAPGKGLEWVSSIYSSGGPTNYADSVKGRFTISRDNSQNTLYLQMNSLRAEDTAVYYCTREKPDYYDSSGYLDYWGQGTLVTVSS
VL: DIQMTQSPGTLSLSPGERSTLSCRASQSVSSSYLAWYQQKPGQAPRLLIYGASSRATGIPDRFSGSGSGTDFTLTISRLEPEDFGVYYCHQYGRPPVFGPGTKVDIK
notes: as for B1
binding result (EGFR on MDA-MB-468 cells): no binding | binding result (murine HER2 on CHO cells): no binding | EC50 [1]: 15 nM | binding result (Her2-Fc D1 (MR066)): no binding (tested: 1 ug/ml) | binding result (Her2-Fc D1-D2 (MR067)): no binding (tested: 1 ug/ml) | binding result (Her2-Fc D1-D2-D3 (MR068)): binds | binding result [2]: binds

B4: BIIB66A12 Fab (Fab, V domains shown)
VH: EVQLLESGGGLVQPGGSLRLSCAASGFTFSMYSMQWVRQAPGKGLEWVSVIGSSGGQTGYADSVKGRFTISRDNSKNTLYLQMNSLRAEDTAVYYCARVRDYYGSGSYYLDPWGQGTLVTVSS
VL: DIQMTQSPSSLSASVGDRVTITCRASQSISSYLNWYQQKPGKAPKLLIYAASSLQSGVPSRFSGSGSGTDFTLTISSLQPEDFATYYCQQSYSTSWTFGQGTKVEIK
notes: as for B1
binding result (EGFR on MDA-MB-468 cells): no binding | binding result (murine HER2 on CHO cells): no binding | EC50 [1]: 60 nM | binding result (Her2-Fc D1 (MR066)): no binding (tested: 1 ug/ml) | binding result (Her2-Fc D1-D2 (MR067)): no binding (tested: 1 ug/ml) | binding result (Her2-Fc D1-D2-D3 (MR068)): binds | binding result [2]: binds

B5: BIIB65C10 Fab (Fab, V domains shown)
VH: EVQLLESGGGLVQPGGSLRLSCAASGFTFSYYPMMWVRQAPGKGLEWVSSIWPSGGFTKYADSVKGRFTISRDNSKNTLYLQMNSLRAEDTATYYCARVSSSSWYGYLYWGQGTLVTVSS
VL: not shown
notes: as for B1
binding result (EGFR on MDA-MB-468 cells): no binding | binding result (murine HER2 on CHO cells): no binding | EC50 [1]: 6 nM | binding result (Her2-Fc D1 (MR066)): no binding (tested: 1 ug/ml) | binding result (Her2-Fc D1-D2 (MR067)): binds | binding result (Her2-Fc D1-D2-D3 (MR068)): binds | binding result [2]: binds

B6: BIIB65H09 Fab (Fab, V domains shown)
VH: EVQLLESGGGLVQPGGSLRLSCAASGFTFSWYSMWWVRQAPGKGLEWVSSIVSSGGQTRYADSVKGRFTISRDNSKNTLYLQMNSLRAEDTAVYYCARVKGYYYYIDVWGKGTTVTVSS
VL: DIQMTQSPGTLSLSPGERATLSCRASQSVDSSYLSWYQQKPGQAPRLLIYGASTRATGIPARFSGSGSGTDFTLTVSRLEPEDFAVYYCQQHGYSSRTFGQGTKVEIK
notes: as for B1
binding result (EGFR on MDA-MB-468 cells): no binding | binding result (murine HER2 on CHO cells): no binding | EC50 [1]: 20 nM | binding result (Her2-Fc D1 (MR066)): no binding (tested: 1 ug/ml) | binding result (Her2-Fc D1-D2 (MR067)): no binding (tested: 1 ug/ml) | binding result (Her2-Fc D1-D2-D3 (MR068)): binds | binding result [2]: binds

B7: BIIB66C01 Fab (Fab, V domains shown)
VH: EVQLLESGGGLVQPGGSLRLSCAASGFTFSWYSMSWVRQAPGKGLEWVSSISSSGGPTHYADSVKGRFTISRDNSKNTLYLQMNSLRAEDTAVYYCARDSSYSGTSWGQGTLVTVSS
VL: QYELTQPPSVSGTPGQRVTISCSGSSSNIGSEYVYWFQQLPGTAPRLLIYRNDQRPSGVPDRFSGSKSGTSASLAISGLRSEDETDYYCTTWDDSLSGPVFGGGTKLTVL
notes: as for B1
binding result (EGFR on MDA-MB-468 cells): no binding | binding result (murine HER2 on CHO cells): no binding | EC50 [1]: 12 nM | binding result (Her2-Fc D1 (MR066)): no binding (tested: 1 ug/ml) | binding result (Her2-Fc D1-D2 (MR067)): no binding (tested: 1 ug/ml) | binding result (Her2-Fc D1-D2-D3 (MR068)): binds | binding result [2]: binds

B8: BIIB67F10 Fab (Fab, V domains shown)
VH: EVQLLESGGGLVQPGGSLRLSCAASGFTFSPYMMVWVRQAPGKGLEWVSWISPSGGYTFYADSVKGRFTISRDNSKNTLYLQMNSLRAEDTAVYYCAYGTYPLTYWGQGTLVTVSS
VL: QSELTQTPSVSVSPGQTASITCSGDKLGDKYVSWFQLKPGQSPLLVIYQDSKWPSGIPERFSGSNSGNTATLTISGTQATDEADYYCQVWDISHVVFGGGTKLTVL
notes: as for B1
binding result (EGFR on MDA-MB-468 cells): no binding | binding result (murine HER2 on CHO cells): no binding | EC50 [1]: 2 nM | binding result (Her2-Fc D1 (MR066)): binds | binding result (Her2-Fc D1-D2 (MR067)): binds | binding result (Her2-Fc D1-D2-D3 (MR068)): binds | binding result [2]: binds
